This note sets out measurements from article PMC6701862 (Science (New York, N.Y.), 2019).

For this assay, the target named is GluA2 subunit of native AMPA receptors (nAMPAR) from rat brain (rat (endogenous in rat brain), UniProt P19491). The experiment in a line: cryo-EM structure.
Chain of GluA2 subunit of native AMPA receptors (nAMPAR) from rat brain (P19491 22-883): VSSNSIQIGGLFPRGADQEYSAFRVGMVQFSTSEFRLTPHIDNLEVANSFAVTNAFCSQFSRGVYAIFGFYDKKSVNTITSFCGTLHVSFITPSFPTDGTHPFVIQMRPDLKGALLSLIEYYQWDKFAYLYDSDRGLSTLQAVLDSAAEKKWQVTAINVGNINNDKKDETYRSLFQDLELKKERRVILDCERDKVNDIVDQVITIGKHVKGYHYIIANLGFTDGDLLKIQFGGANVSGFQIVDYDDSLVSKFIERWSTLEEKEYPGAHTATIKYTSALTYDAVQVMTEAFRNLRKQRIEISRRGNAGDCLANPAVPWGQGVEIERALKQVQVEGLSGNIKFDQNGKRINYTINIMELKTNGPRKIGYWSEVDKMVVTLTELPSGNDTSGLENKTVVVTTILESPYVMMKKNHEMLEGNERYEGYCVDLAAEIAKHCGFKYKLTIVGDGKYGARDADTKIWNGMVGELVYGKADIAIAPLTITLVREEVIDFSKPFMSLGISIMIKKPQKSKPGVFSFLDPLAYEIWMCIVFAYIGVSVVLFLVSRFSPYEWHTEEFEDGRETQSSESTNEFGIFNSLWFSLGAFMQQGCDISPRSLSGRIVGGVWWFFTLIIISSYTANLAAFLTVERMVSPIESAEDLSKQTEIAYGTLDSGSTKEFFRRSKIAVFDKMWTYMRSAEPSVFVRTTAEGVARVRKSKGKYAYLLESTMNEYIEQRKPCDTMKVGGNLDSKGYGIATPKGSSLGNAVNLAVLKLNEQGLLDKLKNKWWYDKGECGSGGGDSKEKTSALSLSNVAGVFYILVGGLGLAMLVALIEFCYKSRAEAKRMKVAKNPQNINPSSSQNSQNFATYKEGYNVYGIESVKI

B1: 15F1 Fab, anti-GluA2 (Fab, V domains shown)
VH: QAQLKESGPGLVAPSQSLSITCTVSGFSLTNYGVHWVRQPPGKGLEWLGVIWAGGSTNYNSALMSRVSISKDNSKSQVFLKMNSLQTDDTVMYYCAREDYDYDWHFDVWGAGTTVTVSS
VL: EIQMTQTTSSLSASLGDRVTISCRASQDISNYLSWYQQKPDGTVKLLIYYTSRLHSGVPSRFSGSGSGIDYSLTINNLEQEDFATYFCQQGNTLPLTFGAGTKLELK
B1: the binding result is recorded as “binds”.
